Consider 2 molecules from patent US6410711.

The target of experiment [1] is T1, CD40/Fc fusion protein (human, UniProt P25942 21-193).
T1 construct: extracellular domain; also called C40/Fc; s CD40/Fc; not shown: remainder of the human IgG1 Fc region, joined at a Bgl II site near the beginning of the hinge
As to the kind of experiment: biosensor (BIAcore), CD40/Fc captured by goat anti-human IgG1 Fc; experiment 1. How it is done:
(§1) This example illustrates the binding affinities of several different CD40-L constructs. Affinity experiments were conducted by biospecific interaction analysis (BIA) using a biosensor, an instrument that combines a biological recognition mechanism with a sensing device or transducer. An exemplary biosensor is BIAcore™, from Pharmacia Biosensor AB (Uppsala, Sweden; see Fägerstam L. G., *Techniques in Protein Chemistry II*, ed. J. J. Villafranca, Acad. Press, NY, 1991). BIAcore™ uses the optical phenomenon surface plasmon resonance (Kretschmann and Raether, *Z. Naturforschung, Teil. A* 23:2135, 1968) to monitor the interaction of two biological molecules. Molecule pairs having affinity constants in the range 10^5 to 10^10 M^-1, and association rate constants in the range of 10^3 to 10^6 M^-1s^-1, are suitable for characterization with BLAcore™.
(§2) The biosensor chips were coated with goat anti-human IgG_1 Fc, which was used to bind CD40/Fc (prepared as described in Example 1) to the chip. The different constructs of CD40-L were then added at increasing concentrations; the chip was regenerated between the different constructs by the addition of sodium hydroxide. Two separate experiments were performed. […] The resultant data were analyzed to determine the affinity and association rate constants of the different CD40-L constructs. […]

For experiment [2], the target named is T1, CD40/Fc fusion protein. As to the kind of experiment: biosensor (BIAcore), CD40/Fc captured by goat anti-human IgG1 Fc; experiment 1; K1 (site 1). The method, then: as §1, §2
Experiment [3] addresses T1, CD40/Fc fusion protein. Nature of the experiment: biosensor (BIAcore), CD40/Fc captured by goat anti-human IgG1 Fc; experiment 1; K2 (site 2). How it is done:
as §1, §2

For experiment [4], the target named is T1, CD40/Fc fusion protein. Nature of the experiment: biosensor assay substantially as Example 22 (captured CD40/Fc); yeast-expressed protein. The method, then:
The biosensor chips were coated with goat anti-human IgG_1 Fc, which was used to bind CD40/Fc (prepared as described in Example 1) to the chip. The different constructs of CD40-L were then added at increasing concentrations; the chip was regenerated between the different constructs by the addition of sodium hydroxide. Two separate experiments were performed. In the first, the binding of a dimeric human CD40-L (Example 14), trimeric human CD40-L (Example 15), dimeric murine CD40-L (prepared substantially as described in Example 14 for human CD40-L/FC) and trimeric murine CD40-L (prepared substantially as described for the human CD40-L in Example 15) were compared. In the second experiment, the binding of trimeric human CD40-L was compared to the binding of two different preparations of monomeric human CD40-L prepared as described in Example 18. The resultant data were analyzed to determine the affinity and association rate constants of the different CD40-L constructs. Results are shown in Table 12 below, and in FIGS. 19A–19B
[a]Mutations are given as the residue present in the native peptide, the residue number, and the residue present in the mutein. Residue numbers for zipper domain mutations are relative to SEQ ID NO: 17. [b]Residue numbers for mutations in the CD40L domain are relative to SEQ ID NO: 12. […]

T1 sequence (P25942 other isoform, or with tags, fused parts or gaps limits assumed): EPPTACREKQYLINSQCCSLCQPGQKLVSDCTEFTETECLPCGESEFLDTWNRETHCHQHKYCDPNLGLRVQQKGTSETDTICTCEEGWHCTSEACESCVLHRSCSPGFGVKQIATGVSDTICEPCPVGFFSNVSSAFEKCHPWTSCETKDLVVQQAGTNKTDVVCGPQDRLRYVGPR

B1: trimeric murine CD40-L (ligand)
chain: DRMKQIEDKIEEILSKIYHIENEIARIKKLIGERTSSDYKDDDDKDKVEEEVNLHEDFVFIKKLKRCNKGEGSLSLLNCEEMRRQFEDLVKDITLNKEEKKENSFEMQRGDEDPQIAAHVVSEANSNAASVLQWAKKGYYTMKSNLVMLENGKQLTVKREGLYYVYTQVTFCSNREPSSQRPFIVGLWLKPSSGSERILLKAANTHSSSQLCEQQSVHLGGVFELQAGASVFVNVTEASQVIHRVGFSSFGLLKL
notes: The leader is not part of the secreted protein; Made in CHO cells; also called Murine Trimer; muCD40LT
Turning to B1, in experiment [1], the “Site 1 (mol/mol CD40/Fc)” value came to 0.02 mol/mol CD40/Fc and the “Site 2 (mol/mol CD40/Fc)” value was found to be 0.44 mol/mol CD40/Fc. Also, the Ka in experiment [2] amounted to 6e+10 M⁻¹. The molecule further showed a Ka in experiment [3] of 1.6e+08 M⁻¹.

B2: wild type CD40 ligand/zipper domain fusion protein (WT) expressed in yeast (ligand)
chain: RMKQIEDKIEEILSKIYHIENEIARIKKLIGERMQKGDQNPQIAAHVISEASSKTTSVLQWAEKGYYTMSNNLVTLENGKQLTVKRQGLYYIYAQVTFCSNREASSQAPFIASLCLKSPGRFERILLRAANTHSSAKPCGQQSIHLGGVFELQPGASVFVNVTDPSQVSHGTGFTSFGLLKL
For the molecule B2, in experiment [4], the Ka came out at 7.7e+07 M⁻¹.
